Reference: article PMC9001735, “Insights into the inhibition of type I-F CRISPR-Cas system by a multifunctional anti-CRISPR protein AcrIF24”
Several values for one entry are separate records, joined by “and”; a condition that tells them apart may be missing. Identical values can stand only once.

Tests used:
[1] = biological target: crRNA-guided surveillance complex (Csy complex) of the type I-F CRISPR-Cas system from P. aeruginosa (P. aeruginosa) (UniProt Q02ML9); experiment: SEC-MALS; mix of AcrIF24 and Csy complex (7.5 mg/mL), AcrIF24:Csy 1:5; Superdex-200 10/300 GL, 20 mM HEPES pH 7.5, 200 mM NaCl
[2] = biological target: crRNA-guided surveillance complex (Csy complex) of the type I-F CRISPR-Cas system from P. aeruginosa (P. aeruginosa) (UniProt Q02ML9); experiment: SPR; Biacore 8K, 25 °C; Csy complex immobilised on a CM5 chip (~10,000 RU), AcrIF24 injected; 20 mM HEPES pH 7.5, NaCl, 0.05% Tween-20; 1:1 Langmuir model
[3] = biological target: crRNA-guided surveillance complex (Csy complex) of the type I-F CRISPR-Cas system from P. aeruginosa (P. aeruginosa) (UniProt Q02ML9); experiment: SEC-MALS; mix of AcrIF24 and Csy complex (7.5 mg/mL), AcrIF24:Csy 5:1; Superdex-200 10/300 GL, 20 mM HEPES pH 7.5, 200 mM NaCl
[4] = biological target: AcrIF24 (full-length, wild type) (Pseudomonas aeruginosa prophage); experiment: SEC-MALS; Superdex-200 10/300 GL, 20 mM HEPES pH 7.5, 200 mM NaCl; AcrIF24 1.5 mg/mL, AcrIF24ΔMD 15 mg/mL; gel filtration coupled with static light scattering
[5] = biological target: crRNA-guided surveillance complex (Csy complex) of the type I-F CRISPR-Cas system from P. aeruginosa (P. aeruginosa) (UniProt Q02ML9); experiment: SEC-MALS; mix of AcrIF24 and Csy complex (7.5 mg/mL), AcrIF24:Csy 1:1; Superdex-200 10/300 GL, 20 mM HEPES pH 7.5, 200 mM NaCl
[6] = biological target: crRNA-guided surveillance complex (Csy complex) of the type I-F CRISPR-Cas system from P. aeruginosa (P. aeruginosa) (UniProt Q02ML9); experiment: SEC-MALS; co-expressed and purified Csy-AcrIF24 complex, 1.5 mg/mL; Superdex-200 10/300 GL, 20 mM HEPES pH 7.5, 200 mM NaCl
[7] = biological target: AcrIF24 Δmiddle domain (Pseudomonas aeruginosa prophage); experiment: SEC-MALS; Superdex-200 10/300 GL, 20 mM HEPES pH 7.5, 200 mM NaCl; AcrIF24 1.5 mg/mL, AcrIF24ΔMD 15 mg/mL; gel filtration coupled with static light scattering
[8] = system: AcrIF24 (Pseudomonas aeruginosa prophage); experiment: EMSA; conditions: EMSA: 20 mM HEPES pH 7.5, 150 mM NaCl, 5% glycerol, 37 C 30 min, 1 uM DNA (20 nM for Kd), MST: 20 mM HEPES pH 7.5, 150 mM KCl
[9] = biological target: Csy complex;AcrIF9 (Pseudomonas aeruginosa;) (UniProt Q02ML9+Q02MM0+Q02MM1+Q02MM2); experiment: MST; conditions: Kd only in figure, EMSA: 20 mM HEPES pH 7.5, 150 mM NaCl, 5% glycerol, 37 C 30 min, 1 uM DNA (20 nM for Kd), MST: 20 mM HEPES pH 7.5, 150 mM KCl
[10] = biological target: Csy complex;AcrIF24 (Pseudomonas aeruginosa;Pseudomonas aeruginosa prophage) (UniProt Q02ML9+Q02MM0+Q02MM1+Q02MM2); experiment: MST; conditions: Kd only in figure, EMSA: 20 mM HEPES pH 7.5, 150 mM NaCl, 5% glycerol, 37 C 30 min, 1 uM DNA (20 nM for Kd), MST: 20 mM HEPES pH 7.5, 150 mM KCl
[11] = system: AcrIF24ΔMD (Pseudomonas aeruginosa prophage); experiment: EMSA; conditions: EMSA: 20 mM HEPES pH 7.5, 150 mM NaCl, 5% glycerol, 37 C 30 min, 1 uM DNA (20 nM for Kd), MST: 20 mM HEPES pH 7.5, 150 mM KCl
Csy complex = biological target: T1, Csy complex (Pseudomonas aeruginosa, UniProt Q02ML9;Q02MM0;Q02MM1;Q02MM2 1-434;1-327;1-342;1-187); experiment: EMSA; EMSA: 20 mM HEPES pH 7.5, 150 mM NaCl, 5% glycerol, 37 C 30 min, 1 uM DNA (20 nM for Kd); MST: 20 mM HEPES pH 7.5, 150 mM KCl, 5% glycerol; conditions: protein: recombinant, copies: 1;1;6;1, blunt
T1 sequence 1: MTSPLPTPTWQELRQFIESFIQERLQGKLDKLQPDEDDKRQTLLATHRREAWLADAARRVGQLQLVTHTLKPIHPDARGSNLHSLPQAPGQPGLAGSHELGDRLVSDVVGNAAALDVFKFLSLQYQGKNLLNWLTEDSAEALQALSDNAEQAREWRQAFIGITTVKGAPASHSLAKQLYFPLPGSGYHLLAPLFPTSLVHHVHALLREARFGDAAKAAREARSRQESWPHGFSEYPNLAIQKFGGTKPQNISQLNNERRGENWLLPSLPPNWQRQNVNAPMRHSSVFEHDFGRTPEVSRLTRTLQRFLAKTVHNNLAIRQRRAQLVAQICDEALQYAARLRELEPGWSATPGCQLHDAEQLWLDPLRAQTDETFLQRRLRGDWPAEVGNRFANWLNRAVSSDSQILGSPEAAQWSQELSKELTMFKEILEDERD
T1 sequence 2: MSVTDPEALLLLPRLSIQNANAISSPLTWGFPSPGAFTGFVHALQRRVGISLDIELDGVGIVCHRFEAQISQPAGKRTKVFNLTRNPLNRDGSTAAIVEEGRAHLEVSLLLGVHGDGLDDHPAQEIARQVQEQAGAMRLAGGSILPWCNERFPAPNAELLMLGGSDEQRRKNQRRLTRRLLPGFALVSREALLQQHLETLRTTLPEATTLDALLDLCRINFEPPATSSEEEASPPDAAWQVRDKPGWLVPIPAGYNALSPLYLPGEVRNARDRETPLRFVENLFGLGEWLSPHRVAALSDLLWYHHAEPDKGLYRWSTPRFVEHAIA
T1 sequence 3: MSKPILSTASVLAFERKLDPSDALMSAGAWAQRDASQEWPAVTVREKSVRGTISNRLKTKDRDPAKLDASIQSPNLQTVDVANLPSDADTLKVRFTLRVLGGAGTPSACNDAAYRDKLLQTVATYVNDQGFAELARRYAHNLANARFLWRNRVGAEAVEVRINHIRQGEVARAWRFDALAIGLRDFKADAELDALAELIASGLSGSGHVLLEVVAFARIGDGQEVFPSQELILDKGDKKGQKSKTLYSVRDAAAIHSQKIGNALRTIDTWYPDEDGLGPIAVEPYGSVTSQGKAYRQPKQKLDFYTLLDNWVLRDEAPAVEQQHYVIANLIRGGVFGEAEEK
T1 sequence 4: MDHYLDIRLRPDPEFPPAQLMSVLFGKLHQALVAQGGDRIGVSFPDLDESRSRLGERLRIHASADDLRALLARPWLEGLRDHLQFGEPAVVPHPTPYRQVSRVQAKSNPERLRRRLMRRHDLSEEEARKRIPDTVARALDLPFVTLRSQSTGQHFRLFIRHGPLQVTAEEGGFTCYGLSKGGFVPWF

With “AcrIF24 (full-length, wild type) (natural protein)” the stoichiometry N (AcrIF24 per Csy complex) [1] was 1, the Kd [2] was 4.21 nM and the koff [2] was 0.00118 s⁻¹. The kon [2] was 281000 M⁻¹ s⁻¹, the stoichiometry N (AcrIF24 per Csy complex) [3] was 2 and 1 and the stoichiometry N [4] was 2. It also gave a stoichiometry N (AcrIF24 per Csy complex) [5] of 1.

With “AcrIF24 co-expressed with the Csy complex (natural protein)” the stoichiometry N (AcrIF24 per Csy complex) [6] was 1.

In the case of “AcrIF24 Δmiddle domain (domain or fragment)”, the stoichiometry N [7] is reported as 2.

“GAGCGACTACGACATGAGCGCGCAGCTAAGACCGCCCGTAGATGCGTCGAGCGT (double strand) [dsDNANS 54 bp]” was tested, and the Kd [8] was 3460 nM.

In the case of “GAGCGACTACGACATGAGCGCGCAGCTAAGACCGCCCGTAGATGCGTCGAGCGT [ssDNANS 54 nt]”, the binding signal (fold weaker than ssDNASP) [9] is reported as 10 and the binding signal (fold weaker than ssDNASP) [10] is reported as 10.

In the case of “GCATAGCTCGATCCGAGCTAGTA (double strand) [IR23-24 WT]”, the Kd [8] is reported as 20.2 nM and the Kd [11] is reported as 49.1 nM.

B1: dsDNANS 54 bp (dsDNA)
DNA 1: GAGCGACTACGACATGAGCGCGCAGCTAAGACCGCCCGTAGATGCGTCGAGCGT
DNA 2: ACGCTCGACGCATCTACGGGCGGTCTTAGCTGCGCGCTCATGTCGTAGTCGCTC
B1: no binding (Csy complex; label: 5'-FAM or 3'-FAM).

B2: dsDNASP 54 bp (dsDNA)
DNA 1: GGAAGCCATCCAGGTAGACGCGGACATCAAGCCCGCCGTGAAGGTGCAGCTGCT
DNA 2: AGCAGCTGCACCTTCACGGCGGGCTTGATGTCCGCGTCTACCTGGATGGCTTCC
B2: binds (Csy complex; label: 5'-FAM or 3'-FAM on target strand, unlabelled in some assays).
